# Target: cyclophilin D (CypD, PPIF) with a K133I mutation
substance,measurement,value
cyclosporine (cyclosporin A) (peptide),"half-maximal inhibition of Ca2+-induced PT pore opening, calcium retention capacity (CRC) assay on isolated liver mitochondria",40 nM

# Source: publication PMC4813465, “Selective Inhibition of the Mitochondrial Permeability Transition Pore Protects against Neurodegeneration in Experimental Multiple Sclerosis” (The Journal of Biological Chemistry, 2015)
